Laboratory results as given in patent US20260242735A1 (UNIVERSIT T BASEL, published 2026).

Tests used:
Experiment in all cases: alanine scan, flow cytometry, HEK293-T;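 also: antibody binding to each alanine-substituted CD33 mutant expressed transiently in HEK293-T, read as fluorescence minus background, mean of duplicates, relative to wild-type CD33 set as 100%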
human CD33 I227A = human CD33 I227A (human, UniProt P20138 18-364)
human CD33 Q228A = human CD33 Q228A (human, UniProt P20138 18-364)
human CD33 N209A = human CD33 N209A (human, UniProt P20138 18-364)
human CD33 S186A = human CD33 S186A (human, UniProt P20138 18-364)
human CD33 E224A = human CD33 E224A (human, UniProt P20138 18-364)
human CD33 I199A = human CD33 I199A (human, UniProt P20138 18-364)
human CD33 A219S = human CD33 A219S (human, UniProt P20138 18-364)
human CD33 V221A = human CD33 V221A (human, UniProt P20138 18-364)
human CD33 I176A = human CD33 I176A (human, UniProt P20138 18-364)
human CD33 Q171A = human CD33 Q171A (human, UniProt P20138 18-364)
human CD33 S178A = human CD33 S178A (human, UniProt P20138 18-364)
human CD33 H193A = human CD33 H193A (human, UniProt P20138 18-364)
human CD33 C169A = human CD33 C169A (human, UniProt P20138 18-364)
human CD33 C276A = human CD33 C276A (human, UniProt P20138 18-364)
human CD33 V294A = human CD33 V294A (human, UniProt P20138 18-364)
human CD33 C274A = human CD33 C274A (human, UniProt P20138 18-364)
human CD33 K309A = human CD33 K309A (human, UniProt P20138 18-364)
human CD33 G263A = human CD33 G263A (human, UniProt P20138 18-364)
human CD33 P244A = human CD33 P244A (human, UniProt P20138 18-364)
human CD33 S314A = human CD33 S314A (human, UniProt P20138 18-364)
human CD33 H317A = human CD33 H317A (human, UniProt P20138 18-364)
human CD33 G295A = human CD33 G295A (human, UniProt P20138 18-364)
human CD33 A272S = human CD33 A272S (human, UniProt P20138 18-364)
human CD33 G264A = human CD33 G264A (human, UniProt P20138 18-364)
human CD33 L271A = human CD33 L271A (human, UniProt P20138 18-364)
human CD33 V282A = human CD33 V282A (human, UniProt P20138 18-364)
human CD33 G247A = human CD33 G247A (human, UniProt P20138 18-364)
human CD33 R296A = human CD33 R296A (human, UniProt P20138 18-364)
human CD33 E252A = human CD33 E252A (human, UniProt P20138 18-364)
human CD33 Q251A = human CD33 Q251A (human, UniProt P20138 18-364)
human CD33 L316A = human CD33 L316A (human, UniProt P20138 18-364)
human CD33 K288A = human CD33 K288A (human, UniProt P20138 18-364)
human CD33 K288A, sequence (P20138 18-364 K288A limits assumed): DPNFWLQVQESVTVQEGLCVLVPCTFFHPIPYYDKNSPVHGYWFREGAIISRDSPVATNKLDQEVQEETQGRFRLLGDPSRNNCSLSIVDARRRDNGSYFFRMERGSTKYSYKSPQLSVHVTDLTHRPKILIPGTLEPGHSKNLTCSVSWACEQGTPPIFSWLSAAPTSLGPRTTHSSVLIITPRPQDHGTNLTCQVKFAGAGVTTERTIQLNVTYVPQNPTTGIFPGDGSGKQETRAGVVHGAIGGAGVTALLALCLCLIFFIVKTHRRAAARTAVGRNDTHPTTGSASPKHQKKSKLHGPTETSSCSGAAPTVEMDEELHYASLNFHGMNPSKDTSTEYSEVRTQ

human CD33 E224A, sequence (P20138 18-364 E224A limits assumed): as the sequence (P20138 18-364 K288A limits assumed) above, with E207A, A271K counted along it
human CD33 H317A, sequence (P20138 18-364 H317A limits assumed): as the sequence (P20138 18-364 K288A limits assumed) above, with A271K, H300A counted along it
human CD33 Q251A, sequence (P20138 18-364 Q251A limits assumed): as the sequence (P20138 18-364 K288A limits assumed) above, with Q234A, A271K counted along it
human CD33 R296A, sequence (P20138 18-364 R296A limits assumed): as the sequence (P20138 18-364 K288A limits assumed) above, with A271K, R279A counted along it
human CD33 K309A, sequence (P20138 18-364 K309A limits assumed): as the sequence (P20138 18-364 K288A limits assumed) above, with A271K, K292A counted along it
human CD33 L271A, sequence (P20138 18-364 L271A limits assumed): as the sequence (P20138 18-364 K288A limits assumed) above, with L254A, A271K counted along it
human CD33 A272S, sequence (P20138 18-364 A272S limits assumed): as the sequence (P20138 18-364 K288A limits assumed) above, with A255S, A271K counted along it
human CD33 P244A, sequence (P20138 18-364 P244A limits assumed): as the sequence (P20138 18-364 K288A limits assumed) above, with P227A, A271K counted along it
human CD33 G295A, sequence (P20138 18-364 G295A limits assumed): as the sequence (P20138 18-364 K288A limits assumed) above, with A271K, G278A counted along it
human CD33 A219S, sequence (P20138 18-364 A219S limits assumed): as the sequence (P20138 18-364 K288A limits assumed) above, with A202S, A271K counted along it
human CD33 G263A, sequence (P20138 18-364 G263A limits assumed): as the sequence (P20138 18-364 K288A limits assumed) above, with G246A, A271K counted along it
human CD33 C276A, sequence (P20138 18-364 C276A limits assumed): as the sequence (P20138 18-364 K288A limits assumed) above, with C259A, A271K counted along it
human CD33 V221A, sequence (P20138 18-364 V221A limits assumed): as the sequence (P20138 18-364 K288A limits assumed) above, with V204A, A271K counted along it
human CD33 V282A, sequence (P20138 18-364 V282A limits assumed): as the sequence (P20138 18-364 K288A limits assumed) above, with V265A, A271K counted along it
human CD33 H193A, sequence (P20138 18-364 H193A limits assumed): as the sequence (P20138 18-364 K288A limits assumed) above, with H176A, A271K counted along it
human CD33 C274A, sequence (P20138 18-364 C274A limits assumed): as the sequence (P20138 18-364 K288A limits assumed) above, with C257A, A271K counted along it
human CD33 V294A, sequence (P20138 18-364 V294A limits assumed): as the sequence (P20138 18-364 K288A limits assumed) above, with A271K, V277A counted along it
human CD33 G247A, sequence (P20138 18-364 G247A limits assumed): as the sequence (P20138 18-364 K288A limits assumed) above, with G230A, A271K counted along it
human CD33 Q228A, sequence (P20138 18-364 Q228A limits assumed): as the sequence (P20138 18-364 K288A limits assumed) above, with Q211A, A271K counted along it
human CD33 S314A, sequence (P20138 18-364 S314A limits assumed): as the sequence (P20138 18-364 K288A limits assumed) above, with A271K, S297A counted along it
human CD33 I227A, sequence (P20138 18-364 I227A limits assumed): as the sequence (P20138 18-364 K288A limits assumed) above, with I210A, A271K counted along it
human CD33 S186A, sequence (P20138 18-364 S186A limits assumed): as the sequence (P20138 18-364 K288A limits assumed) above, with S169A, A271K counted along it
human CD33 N209A, sequence (P20138 18-364 N209A limits assumed): as the sequence (P20138 18-364 K288A limits assumed) above, with N192A, A271K counted along it
human CD33 Q171A, sequence (P20138 18-364 Q171A limits assumed): as the sequence (P20138 18-364 K288A limits assumed) above, with Q154A, A271K counted along it
human CD33 S178A, sequence (P20138 18-364 S178A limits assumed): as the sequence (P20138 18-364 K288A limits assumed) above, with S161A, A271K counted along it
human CD33 E252A, sequence (P20138 18-364 E252A limits assumed): as the sequence (P20138 18-364 K288A limits assumed) above, with E235A, A271K counted along it
human CD33 C169A, sequence (P20138 18-364 C169A limits assumed): as the sequence (P20138 18-364 K288A limits assumed) above, with C152A, A271K counted along it
human CD33 G264A, sequence (P20138 18-364 G264A limits assumed): as the sequence (P20138 18-364 K288A limits assumed) above, with G247A, A271K counted along it
human CD33 I176A, sequence (P20138 18-364 I176A limits assumed): as the sequence (P20138 18-364 K288A limits assumed) above, with I159A, A271K counted along it
human CD33 I199A, sequence (P20138 18-364 I199A limits assumed): as the sequence (P20138 18-364 K288A limits assumed) above, with I182A, A271K counted along it
human CD33 L316A, sequence (P20138 18-364 L316A limits assumed): as the sequence (P20138 18-364 K288A limits assumed) above, with A271K, L299A counted along it

Mean % WT Binding (human CD33 I227A)	Mean % WT Binding (human CD33 Q228A)	Mean % WT Binding (human CD33 N209A)	Mean % WT Binding (human CD33 S186A)	Mean % WT Binding (human CD33 E224A)	Mean % WT Binding (human CD33 I199A)	Mean % WT Binding (human CD33 A219S)	Mean % WT Binding (human CD33 V221A)	Mean % WT Binding (human CD33 I176A)	Mean % WT Binding (human CD33 Q171A)	Mean % WT Binding (human CD33 S178A)	Mean % WT Binding (human CD33 H193A)	Mean % WT Binding (human CD33 C169A)	Mean % WT Binding (human CD33 C276A)	Mean % WT Binding (human CD33 V294A)	Mean % WT Binding (human CD33 C274A)	Mean % WT Binding (human CD33 K309A)	Mean % WT Binding (human CD33 G263A)	Mean % WT Binding (human CD33 P244A)	Mean % WT Binding (human CD33 S314A)	Binder	further results
78.7%	112%	88.1%	121%	107%	114%	112%	104%	124%	102%	101%	103%	69.3%	–	–	–	–	–	–	–	Refmab #4 (antibody, V domains shown, In the alanine scan antibodies were used as IgG or Fab) VH: QVQLVQSGAEVKKPGESVKVSCKASGYTFTNYGMNWVKQAPGQGLEWMGWINTYTGEPTYADKFQGRVTMTTDTSTSTAYMEIRNLGGDDTAVYYCARWSWSDGYYVYFDYWGQGTSVTVSS VL: DIVMTQSPDSLTVSLGERTTINCKSSQSVLDSSTNKNSLAWYQQKPGQPPKLLLSWASTRESGIPDRFSGSGSGTDFTLTIDSPQPEDSATYYCQQSAHFPITFGQGTRLEIK	–
110%	120%	104%	120%	102%	125%	117%	92.3%	124%	90%	113%	122%	106%	–	–	–	–	–	–	–	Refmab #2 (antibody, V domains shown, In the alanine scan antibodies were used as IgG or Fab) VH: QVQLVQSGAEVKKPGSSVKVSCKASGGTFSDYAISWVRQAPGQGLEWMGRIIPILGVADYAQKFQGRVTITADKSTRTAYMELSSLRSEDTAVYYCARNWADAFDIWGQGTMVTVSS VL: DIQLTQSPSSLSASVGDRVTITCRASQGISSVLAWYQQKPGKAPKLLIYDASSLESGVPSRFSGSGSGTDFTLTISSLQPEDFATYYCQQFDSSITFGQGTKLEIK	–
–	–	–	–	–	–	–	–	–	–	–	–	–	103 % WT binding	105 % WT binding	117 % WT binding	111 % WT binding	102 % WT binding	112 % WT binding	95.5 % WT binding	Refmab #2 (antibody, V domains shown, The alanine scan used IgG or Fab) VH: QVQLVQSGAEVKKPGSSVKVSCKASGGTFSDYAISWVRQAPGQGLEWMGRIIPILGVADYAQKFQGRVTITADKSTRTAYMELSSLRSEDTAVYYCARNWADAFDIWGQGTMVTVSS VL: DIQLTQSPSSLSASVGDRVTITCRASQGISSVLAWYQQKPGKAPKLLIYDASSLESGVPSRFSGSGSGTDFTLTISSLQPEDFATYYCQQFDSSITFGQGTKLEIK	Mean % WT Binding (human CD33 H317A): 99.8 % WT binding; Mean % WT Binding (human CD33 G295A): 110 % WT binding; Mean % WT Binding (human CD33 A272S): 110 % WT binding; Mean % WT Binding (human CD33 G264A): 105 % WT binding; Mean % WT Binding (human CD33 L271A): 113 % WT binding; Mean % WT Binding (human CD33 V282A): 112 % WT binding; Mean % WT Binding (human CD33 G247A): 110 % WT binding; Mean % WT Binding (human CD33 R296A): 111 % WT binding; Mean % WT Binding (human CD33 E252A): 116 % WT binding; Mean % WT Binding (human CD33 Q251A): 117 % WT binding; Mean % WT Binding (human CD33 L316A): 104 % WT binding; Mean % WT Binding (human CD33 K288A): 108 % WT binding
86.7%	99.4%	92.1%	92.5%	95.4%	98.5%	104%	91.9%	93.5%	90.8%	94%	99.9%	75.8%	–	–	–	–	–	–	–	Refmab #1 (antibody, V domains shown, In the alanine scan antibodies were used as IgG or Fab; also called hP67.6) VH: EVQLVQSGAEVKKPGSSVKVSCKASGYTITDSNIHWVRQAPGQSLEWIGYIYPYNGGTDYNQKFKNRATLTVDNPTNTAYMELSSLRSEDTAFYYCVNGNPWLAYWGQGTLVTVSS VL: DIQLTQSPSTLSASVGDRVTITCRASESLDNYGIRFLTWFQQKPGKAPKLLMYAASNQGSGVPSRFSGSGSGTEFTLTISSLQPDDFATYYCQQTKEVPWSFGQGTKVEVK	–
–	–	–	–	–	–	–	–	–	–	–	–	–	83.4 % WT binding	91.7 % WT binding	88.4 % WT binding	92.7 % WT binding	98.9 % WT binding	84.3 % WT binding	96.2 % WT binding	Refmab #1 (antibody, V domains shown, The alanine scan used IgG or Fab; also called hP67.6) VH: EVQLVQSGAEVKKPGSSVKVSCKASGYTITDSNIHWVRQAPGQSLEWIGYIYPYNGGTDYNQKFKNRATLTVDNPTNTAYMELSSLRSEDTAFYYCVNGNPWLAYWGQGTLVTVSS VL: DIQLTQSPSTLSASVGDRVTITCRASESLDNYGIRFLTWFQQKPGKAPKLLMYAASNQGSGVPSRFSGSGSGTEFTLTISSLQPDDFATYYCQQTKEVPWSFGQGTKVEVK	Mean % WT Binding (human CD33 H317A): 80.8 % WT binding; Mean % WT Binding (human CD33 G295A): 92.7 % WT binding; Mean % WT Binding (human CD33 A272S): 87.6 % WT binding; Mean % WT Binding (human CD33 G264A): 95 % WT binding; Mean % WT Binding (human CD33 L271A): 100 % WT binding; Mean % WT Binding (human CD33 V282A): 109 % WT binding; Mean % WT Binding (human CD33 G247A): 98.5 % WT binding; Mean % WT Binding (human CD33 R296A): 101 % WT binding; Mean % WT Binding (human CD33 E252A): 98.8 % WT binding; Mean % WT Binding (human CD33 Q251A): 98.8 % WT binding; Mean % WT Binding (human CD33 L316A): 84.6 % WT binding; Mean % WT Binding (human CD33 K288A): 112 % WT binding
127%	157%	91.7%	106%	83.2%	112%	113%	89%	100%	138%	112%	92%	115%	–	–	–	–	–	–	–	Refmab #3 (antibody, V domains shown, In the alanine scan antibodies were used as IgG or Fab) VH: QVQLVQSGAEVKKPGSSVKVSCKASGYTFTDYNMHWVRQAPGQGLEWIGYIYPYNGGTGYNQKFKSKATITADESTNTAYMELSSLRSEDTAVYYCARGRPAMDYWGQGTLVTVSS VL: DIQMTQSPSSLSASVGDRVTITCRASESVDNYGISFMNWFQQKPGKAPKLLIYAASNQGSGVPSRFSGSGSGTDFTLTISSLQPDDFATYYCQQSKEVPWTFGQGTKVEIK	–
–	–	–	–	–	–	–	–	–	–	–	–	–	115 % WT binding	95.8 % WT binding	111 % WT binding	92 % WT binding	116 % WT binding	138 % WT binding	139 % WT binding	Refmab #3 (antibody, V domains shown, The alanine scan used IgG or Fab) VH: QVQLVQSGAEVKKPGSSVKVSCKASGYTFTDYNMHWVRQAPGQGLEWIGYIYPYNGGTGYNQKFKSKATITADESTNTAYMELSSLRSEDTAVYYCARGRPAMDYWGQGTLVTVSS VL: DIQMTQSPSSLSASVGDRVTITCRASESVDNYGISFMNWFQQKPGKAPKLLIYAASNQGSGVPSRFSGSGSGTDFTLTISSLQPDDFATYYCQQSKEVPWTFGQGTKVEIK	Mean % WT Binding (human CD33 H317A): 157 % WT binding; Mean % WT Binding (human CD33 G295A): 95.8 % WT binding; Mean % WT Binding (human CD33 A272S): 105 % WT binding; Mean % WT Binding (human CD33 G264A): 89 % WT binding; Mean % WT Binding (human CD33 L271A): 135 % WT binding; Mean % WT Binding (human CD33 V282A): 73.2 % WT binding; Mean % WT Binding (human CD33 G247A): 106 % WT binding; Mean % WT Binding (human CD33 R296A): 92.9 % WT binding; Mean % WT Binding (human CD33 E252A): 96.3 % WT binding; Mean % WT Binding (human CD33 Q251A): 93.3 % WT binding; Mean % WT Binding (human CD33 L316A): 90.4 % WT binding; Mean % WT Binding (human CD33 K288A): 107 % WT binding
